Holding throughout (experiment): fluorescence polarization
What all share (settings): internal 6-carboxyfluorescein in backbone between U12 and C13 (central tetraloop bases); 25 mM MOPS pH 7.4, 150 mM KCl, 2 mM DTT, 2 mM MgCl2, 0.01% Triton X-100, 1 nM RNA, room temperature, 1 h

The target in series [1] is T1, RIG-I Q784A/R791A Q784A;R791A (Homo sapiens) (UniProt O95786).
T1 sequence: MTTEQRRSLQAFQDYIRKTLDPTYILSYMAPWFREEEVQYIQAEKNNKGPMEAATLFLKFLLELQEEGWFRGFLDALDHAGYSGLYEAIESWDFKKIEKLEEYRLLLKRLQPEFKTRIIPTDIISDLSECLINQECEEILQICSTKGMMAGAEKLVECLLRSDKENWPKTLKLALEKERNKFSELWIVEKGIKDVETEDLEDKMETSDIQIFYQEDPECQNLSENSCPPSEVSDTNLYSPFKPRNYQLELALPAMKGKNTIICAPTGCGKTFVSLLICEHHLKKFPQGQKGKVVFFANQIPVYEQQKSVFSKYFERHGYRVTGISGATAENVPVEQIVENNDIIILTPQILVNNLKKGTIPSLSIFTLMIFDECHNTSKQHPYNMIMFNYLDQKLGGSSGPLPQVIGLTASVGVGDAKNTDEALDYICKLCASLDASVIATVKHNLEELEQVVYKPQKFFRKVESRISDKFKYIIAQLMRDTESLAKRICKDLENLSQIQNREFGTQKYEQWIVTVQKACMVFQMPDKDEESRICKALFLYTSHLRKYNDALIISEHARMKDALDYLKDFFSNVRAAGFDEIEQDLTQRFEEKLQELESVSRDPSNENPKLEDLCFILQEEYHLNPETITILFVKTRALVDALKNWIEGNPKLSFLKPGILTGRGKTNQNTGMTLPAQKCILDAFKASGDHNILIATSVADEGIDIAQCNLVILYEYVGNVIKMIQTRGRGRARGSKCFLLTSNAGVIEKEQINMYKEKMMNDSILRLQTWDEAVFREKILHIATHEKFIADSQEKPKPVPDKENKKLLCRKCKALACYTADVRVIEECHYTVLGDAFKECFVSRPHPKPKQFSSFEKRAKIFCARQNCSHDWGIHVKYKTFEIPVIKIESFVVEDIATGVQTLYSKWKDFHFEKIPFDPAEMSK

The next series addresses T2, RIG-I WT (Homo sapiens) (UniProt O95786).
T2 sequence: T1 sequence with A784Q, A791R

Series [2] addresses T3, RIG-I Q784A/K788A/R791A Q784A;K788A;R791A (Homo sapiens) (UniProt O95786).
T3 sequence: T1 sequence with K788A

Residue numbers refer to the chain shown, from its start.

GGACGUACGUUUCGACGUACGUCC [5'OH10L-F]: the dissociation constant (Kd) was found to be 0.0914 µM in series [1], 0.025 µM in the series with RIG-I WT (Homo sapiens) and 0.172 µM in series [2].
